Here are results for 2 substances from US10753947B2, “Methods for screening voltage-gated proteins” (D.E. Shaw Research, LLC, priority 2012, dated 2020).

Where two headings read alike, the source gives them in different places.

Test [1] deals with Kv2.1 R293S/R294S/R300S (R-1S/R0S/R2S). In words: Omega currents (Iω) of Kv2.1 R-1S/R0S/R2S in Xenopus oocytes, two electrode voltage-clamp. The class given is cell-based, human. The text has this: The coding cDNAs of KV2.1 “wild-type” (hereinafter WT) base construct (hKv2.1-m7-c3 is human Kv2.1, residues 1-858, mutated to confer AgTx2 sensitivity and to remove extracellular cysteine residues) was synthesized (Entelchon GmbH) and cloned into the high expression vector pBSTA.
Mutations Kv2.1 R294N (hereinafter R0N), Kv2.1 R300S (hereinafter R2S), Kv2.1 R294C/R300S (hereinafter R0C/R2S), Kv2.1 R293S/R294S (hereinafter R-1S/R0S), Kv2.1 R293S/R294C (hereinafter R-1S/R0C), Kv2.1 R293S/R294S/R300S (hereinafter R-1S/R0S/R2S), Kv2.1 R293S/R294C/R300S (hereinafter R-1S/R0C/R2S) were introduced using the QuikChange® Lightning Site-Directed Mutagenesis Kit (Stratagene) with mutagenic primers according to the manufacturer's instructions. All constructs were checked by restriction site mapping and sequencing.
Transcripted cRNA was produced using the mMessage mMachine kit (Ambion Inc.). Two to four days past injection of cRNA into stage V-VI Xenopus oocytes (NASCO) potassium currents through the alpha pore (Iα) were recorded with the two electrode voltage-clamp technique making use of a TURBO TEC-05× amplifier (npi electronic GmbH). Currents were filtered at 10 kHz and sampled at 20 kHz. The bath solution contained (in mM): NaCl 96, KCl 2, CaCl2 1, MgCl2 1 and HEPES 5 (pH 7.5). Voltage-recording and current-injecting microelectrodes were filled with 3 M KCl and pulled to have resistances between 0.2 and 1 MΩ (see Stork et al., 2007). The pClamp software package v.10.1 (Molecular Devices, Inc.) was used for data acquisition and analysis.
Recording of alpha currents (Iα): Pulses of 100 ms were applied from ˜60 to +60 mV in 10 mV steps at 1 Hz from a holding potential of ˜80 mV to the Kv2.1 channel constructs to measure alpha currents (Iα). Passive leak currents were subtracted online using a P/4 procedure: pClamp software generates a series of scaled-down replica sweeps of the main stimulus waveform. […] The cell's response to the subsweeps is used to calculate the degree of passive cellular current leak. This is then subtracted from acquired data on the associated input signal. Recording of omega currents (Iω): Pulses of 10 ms were applied from a holding potential of ˜80 to ˜300 mV in 20 mV steps at 0.3 Hz to the Kv2.1 channel constructs. Iω were recorded without leak subtraction.
AgTx2 (Sigma Aldrich) was reconstituted according to manufacturer's instructions with 10 mM Tris, pH 7.5, containing 100 mM sodium chloride, 0.1% bovine serum albumin, and 1 mM EDTA. LaCl3 was from Sigma Aldrich; MTSEA, MTSES and MTSET were from Biotium.
La^3+, AgTx2, MTSEA, MTSES and MTSET and were applied to Xenopus oocytes by means of a fast perfusion technique (ScreeningTool as described by Baburin et al., 2006). Origin software v.7.0 (OriginLab Corp.) was employed for data analysis. Inhibition of inward currents was defined as 1−Iω,drug/Iω,control, where Iω,drug is the current response in the presence of a given concentration of lanthanum (La^3+) and Iω, control is the control current through the omega pore. The concentration-inhibition curve was fitted using the Hill equation: Iω,drug/Iω,control=A+[…] where IC50 is the concentration at which Iω inhibition is half-maximal, C is the applied La^3+ concentration, A is the fraction of Iω current that blocked and nH is the Hill coefficient. Data are given as mean±SE (n=number of experiments).
A general note: Two-electrode voltage clamp is typically applied to oocytes expressing channels or transporters.

Test [2] addresses T1, Kv2.1 T359S K360G A366D S367A I383M Y384T K386V (Homo sapiens, UniProt Q14721, A366D/I383M/K360G/K386V/S367A/T359S/Y384T).
T1 sequence (Q14721 1-858 T359S/K360G/A366D/S367A/I383M/Y384T/K386V): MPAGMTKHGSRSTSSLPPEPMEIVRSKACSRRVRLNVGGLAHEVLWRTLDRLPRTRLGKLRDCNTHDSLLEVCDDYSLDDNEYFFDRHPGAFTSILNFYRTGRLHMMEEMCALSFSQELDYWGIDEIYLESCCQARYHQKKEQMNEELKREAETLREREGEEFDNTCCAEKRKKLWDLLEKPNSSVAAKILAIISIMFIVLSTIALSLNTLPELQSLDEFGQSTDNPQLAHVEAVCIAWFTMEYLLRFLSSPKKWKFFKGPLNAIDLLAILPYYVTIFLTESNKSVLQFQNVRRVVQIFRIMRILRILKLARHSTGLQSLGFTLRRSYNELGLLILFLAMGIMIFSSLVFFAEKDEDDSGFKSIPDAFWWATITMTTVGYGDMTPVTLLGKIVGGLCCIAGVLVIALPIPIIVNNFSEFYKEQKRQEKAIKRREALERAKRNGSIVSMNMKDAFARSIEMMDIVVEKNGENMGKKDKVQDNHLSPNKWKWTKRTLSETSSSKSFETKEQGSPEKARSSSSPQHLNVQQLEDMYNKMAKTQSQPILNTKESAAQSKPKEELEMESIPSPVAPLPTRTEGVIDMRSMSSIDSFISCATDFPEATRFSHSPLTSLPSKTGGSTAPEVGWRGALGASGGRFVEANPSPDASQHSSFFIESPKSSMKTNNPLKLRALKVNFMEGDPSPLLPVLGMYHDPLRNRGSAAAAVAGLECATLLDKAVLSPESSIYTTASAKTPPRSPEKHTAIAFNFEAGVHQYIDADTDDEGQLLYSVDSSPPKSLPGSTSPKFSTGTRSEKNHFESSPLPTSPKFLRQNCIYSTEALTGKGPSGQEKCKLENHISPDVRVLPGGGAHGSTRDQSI
Conditions: Table 5; read-out: IC50, channel Kv2.1 T359S K360G A366D S367A I383M Y384T K386V; cited from earlier work.

The next test addresses Kv1.3 (Homo sapiens, UniProt P22001). The settings on record: cited from earlier work.

Sequence of Kv1.3 (P22001 whole entry): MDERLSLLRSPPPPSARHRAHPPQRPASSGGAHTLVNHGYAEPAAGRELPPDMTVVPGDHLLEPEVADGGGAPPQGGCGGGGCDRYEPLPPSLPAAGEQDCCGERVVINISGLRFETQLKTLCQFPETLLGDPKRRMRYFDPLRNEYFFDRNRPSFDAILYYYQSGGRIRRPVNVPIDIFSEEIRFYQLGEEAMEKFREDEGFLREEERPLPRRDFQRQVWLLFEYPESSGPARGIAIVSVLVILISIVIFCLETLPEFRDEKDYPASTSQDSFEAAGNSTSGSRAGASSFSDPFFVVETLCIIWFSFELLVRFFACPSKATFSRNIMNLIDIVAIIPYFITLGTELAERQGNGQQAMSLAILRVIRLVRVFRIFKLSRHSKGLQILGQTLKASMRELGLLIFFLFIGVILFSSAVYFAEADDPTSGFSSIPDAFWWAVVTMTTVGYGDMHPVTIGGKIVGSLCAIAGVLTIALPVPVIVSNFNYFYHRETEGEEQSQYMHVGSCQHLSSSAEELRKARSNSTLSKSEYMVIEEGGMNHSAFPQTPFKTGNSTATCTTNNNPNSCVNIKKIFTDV

On to “Agitotoxin-2 (GVPINVSCTGSPQCIKPCKDAGMRFGKCMNRKCHCTPK) [AgTx2]”, for which the “Inhibition of inward currents at negative potentials (Iω)” value in test [1] (10 nM AgTx2, after 5 minutes) is listed as “not inhibited”. In addition, the IC50 in test [2] was 7 pM; with Kv1.3 (Table 3, read-out: IC50 Values of Kv1.3 ion channel modulating agent) it was 4 pM; with Kv1.3 (Table 5, read-out: IC50, channel Kv1.3) it was 4 pM. Also, the “Sensitivity of Kv1.3 to the scorpion toxin” value in the test with Kv1.3 (text b541) is on record as “sensitive”.

“Guangxitoxin (EGECGGFWWKCGSGKPACCPKYVCSPKWGLCNFPMP) [GxTx-1E]”: the “Effect on omega current (Iω)” value in test [1] (100 nM GxTx-1E, 5 minutes application) is “enhanced”. The IC50 in test [2] is around 2000 pM. Besides, the “IC50, channel Kv1.3” value in the test with Kv1.3 (Table 5, result in words) is given as “No effect”.

Usually IC50 stands for the concentration that gives 50% inhibition.
